From article PMC5750209, “Structural basis for DNA 3′-end processing by human tyrosyl-DNA phosphodiesterase 1” come the findings set out here.

The target of data set [1] is Tdp1(Δ148) H263A (Homo sapiens, UniProt Q9NUW8 149-608, H263A). Put plainly: UV cross-linking (312 nm), SDS-PAGE and MS; cross-link via F259; Cross-linking: 10 mM Tris-HCl pH 7.5, 100 mM KCl, 5 µM each, 15 min room temperature then 15 min on ice, UV 312 nm 30 min on ice. Crystal complex: 50 mM HEPES pH 7.8, 50 mM NaCl, on ice, 110 µM complex. The settings on record: protein: recombinant; tags: N-terminal His6; label: 5' 32P (tracer); 3' biotin-TEG; single strand.

The target of data set [2] is T1, Tdp1(Δ148) (Homo sapiens, UniProt Q9NUW8 149-608). As to the kind of experiment: X-ray crystal structure (2.04 Å); 3'-phosphorylated product complex; Cross-linking: 10 mM Tris-HCl pH 7.5, 100 mM KCl, 5 µM each, 15 min room temperature then 15 min on ice, UV 312 nm 30 min on ice. Crystal complex: 50 mM HEPES pH 7.8, 50 mM NaCl, on ice, 110 µM complex. As to conditions: protein: recombinant; tags: N-terminal His6; chain copies: 2; blunt, self-complementary, 2 copies of one strand.

Data set [3] has as its target T1, Tdp1(Δ148). As to the kind of experiment: X-ray crystal structure (3.18 Å); product complex; Cross-linking: 10 mM Tris-HCl pH 7.5, 100 mM KCl, 5 µM each, 15 min room temperature then 15 min on ice, UV 312 nm 30 min on ice. Crystal complex: 50 mM HEPES pH 7.8, 50 mM NaCl, on ice, 110 µM complex. As to conditions: protein: recombinant; tags: N-terminal His6; chain copies: 2; blunt, self-complementary, 2 copies of one strand.

T1 sequence (Q9NUW8 149-608, stated change not applied): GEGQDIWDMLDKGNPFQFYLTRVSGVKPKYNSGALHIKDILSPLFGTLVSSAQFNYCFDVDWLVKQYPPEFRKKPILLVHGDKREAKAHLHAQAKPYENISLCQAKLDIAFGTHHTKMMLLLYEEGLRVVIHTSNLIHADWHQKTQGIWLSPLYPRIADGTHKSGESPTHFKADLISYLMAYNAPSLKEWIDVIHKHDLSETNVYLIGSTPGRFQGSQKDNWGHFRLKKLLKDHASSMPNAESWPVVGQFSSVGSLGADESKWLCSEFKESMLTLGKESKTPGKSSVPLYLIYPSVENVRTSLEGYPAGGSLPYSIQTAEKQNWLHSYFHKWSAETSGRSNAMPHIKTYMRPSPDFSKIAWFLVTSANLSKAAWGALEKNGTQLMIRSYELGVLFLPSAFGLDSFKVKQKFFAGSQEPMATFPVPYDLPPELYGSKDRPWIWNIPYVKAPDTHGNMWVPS
Chain of Tdp1(Δ148) H263A (Q9NUW8 149-608 H263A): as the sequence (Q9NUW8 149-608, stated change not applied) above, with H115A counted along it

B1: 5IdU(-2) 20-mer (ssDNA)
DNA: GTAGAGGATCTAAAAGACUT
modifications: 5-iodouracil (5-iodo-dU) at nt 19
In the case of B1, in data set [1], the binding result is recorded as “binds”.

B2: -2G 12-mer duplex (dsDNA)
DNA 1: CACTGCGCAGTG
DNA 2: CACTGCGCAGTG
B2: the binding result in data set [2] is listed as “binds”.

B3: -2T 12-mer duplex (dsDNA)
DNA 1: CAATGCGCATTG
DNA 2: CAATGCGCATTG
Turning to B3, in data set [3], the binding result is given as “binds”.

B4: 5IdU(-3) 20-mer (ssDNA)
DNA: GTAGAGGATCTAAAAGAUTT
modifications: 5-iodouracil (5-iodo-dU) at nt 18
With B4, the binding result in data set [1] is listed as “binds”.
